We go through 16 molecules from patent US20190367592A1 (AC IMMUNE, published 2019).

By Kd is commonly meant the concentration at which binding is half-saturated. As a reminder, the koff is the first-order rate constant of dissociation. What is called kon is a measure of how fast the partners come together.

Assay [1] has as its target T1, recombinant human Tau monomer, 2N4R isoform (amino acids 2-441) (human, UniProt P10636-8 2-441).
T1 construct: range 2-441; N-terminal His-tag removed with TEV protease; also called monomeric Tau
The assay can be described thus: SPR, mIgG2a captured, Tau monomer analyte, 1:1 fit. An excerpt:
Antibody heavy and light chains were constructed via gene synthesis and subcloning of the resulting DNA into murine IgG2a (heavy chain) and murine kappa (light chain) mammalian expression vectors. Antibodies were expressed in CHO or 293T cells by transient co-transfection of the heavy chain and light chain plasmids and were purified with affinity resin MabSelectSure (GE Healthcare Life Sciences). Purified recombinant antibodies were screened for binding to Tau monomer protein on a Biacore T200 surface plasmon resonance instrument using a mouse IgG capture kit and a Series S CM5 chip. Antibodies in mIgG2a format diluted in 10 mM HEPES pH7.4, 150 mM NaCl, 0.05% Tween 20 (running buffer, HBSP) were captured for 30 or 45 seconds at a concentration of 1 μg/ml (antibodies 26C1, 94B2-C1, 52F6-F11.v1, 52F6-F11.v2, 11E10-B8, 55E7-F11, 125B1-H3, 123E9-A1, 30G1-B2, 66F5-A1, 89F4-A1, 93A8-D2 and 126F11-G11) or for 70 or 150 seconds at a concentration of 0.1 μg/ml (antibodies 19H6-F7, 3A4-H4, 54C1-H11 and 37D3-H9) using a flow rate of 10 μl/min. […] Association and dissociation times were monitored for 180-480 seconds and for 300-600 seconds respectively. Antibody 37D3-H9 was selected for further analysis due to the high affinity (Table 6) and the absence of NXS/T glycosylation motifs in the CDRs.
(SPR reads the build-up and loss of mass on a sensor chip optically.)

Assay [2] has as its target T2, full-length human Tau (flTau) (human, UniProt P10636-8 1-441).
T2 construct: range 1-441; bought (SignalChem); also called human Tau-441
As to the kind of experiment: SPR, hybridoma Ab on anti-IgG chip, flTau analyte. On the procedure: Affinity of non-purified antibodies in serum-free hybridoma supernatants was estimated by surface plasmon resonance using a Biacore T-100 instrument (GE Healthcare, United Kingdom). Antibodies were immobilized onto an anti-IgG biosensor chip, and flTau (SignalChem, Canada) was used as the target analyte. Kinetic analysis was done using a 1:1 Langmuir fit model.
For affinity measurements to flTau, antibodies were measured using SPR on a Biacore instrument, with the KDs determined. Biacore affinity measurements were done by immobilizing antibodies on an anti-IgG chip and using flTau as the target analyte.

The target of assay [3] is T1, recombinant human Tau monomer, 2N4R …. The assay can be described thus: SPR screen, hIgG captured, Tau monomer analyte. An excerpt: Antibody 125B11-H3 was humanized onto VH3 and Vκ1 consensus frameworks. The heavy chain graft included murine residues at position 78 (Kabat numbering system). The Vκ1 graft included murine residues in framework positions 43 and 87. The light chain of 113F5-F7 was also humanized onto the Vκ1 framework, with additional murine residues at framework positions 43 and 87. Humanized variant heavy chains (125B11) and light chains (125B11 and 113F5-F7) were co-transfected in multiple combinations and purified in 96-well format as described above. Humanized variants were then screened for affinity for human Tau monomer using the Biacore human IgG capture kit, a Series S CM5 chip and a Biacore T200 instrument. Antibodies were diluted to 2 μg/ml and captured for 15 seconds at 10 μl/min. Association and dissociation of 0, 100 and 500 nM human Tau monomer in HBSP was monitored for 180s and 300s respectively at a flow rate of 40 μl/min. A 1:1 binding model was applied to the results (Table 9).
Variants hu125B11.v17 (HC3+LC1), hu125B11.v26 (HC4+LC2) and hu125B 11.v28 (HC4+LC4) were selected for high-resolution kinetic analysis based on the affinity screen (Table 10). Antibody 94B2-C1 was humanized onto VH1 and Vx2 frameworks. The heavy chain graft also included murine residues at position 28, 29, 67, 69, 71, and 73 (Kabat numbering system). The Vκ2 graft also included murine residues in framework positions 2, 36, and 46. […] Variant hu94B2.v105 (heavy chain variant 94B2.HCl, light chain variant 94B2.LC13) was selected for detailed SPR characterization (Table 11).

T1 sequence (P10636 other isoform, or with tags, fused parts or gaps limits assumed): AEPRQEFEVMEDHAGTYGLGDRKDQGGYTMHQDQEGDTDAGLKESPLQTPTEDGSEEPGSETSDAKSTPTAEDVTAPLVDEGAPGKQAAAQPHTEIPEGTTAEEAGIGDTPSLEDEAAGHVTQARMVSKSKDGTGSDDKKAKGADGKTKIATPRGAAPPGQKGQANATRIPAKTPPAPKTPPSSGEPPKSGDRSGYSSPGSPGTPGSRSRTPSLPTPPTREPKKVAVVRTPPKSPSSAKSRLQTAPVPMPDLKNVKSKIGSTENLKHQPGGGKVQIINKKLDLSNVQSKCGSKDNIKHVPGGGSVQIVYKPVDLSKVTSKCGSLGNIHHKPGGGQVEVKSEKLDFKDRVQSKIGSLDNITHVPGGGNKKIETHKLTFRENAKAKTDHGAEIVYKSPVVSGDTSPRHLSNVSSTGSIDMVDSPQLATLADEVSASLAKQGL
T2 sequence (P10636 other isoform, or with tags, fused parts or gaps limits assumed): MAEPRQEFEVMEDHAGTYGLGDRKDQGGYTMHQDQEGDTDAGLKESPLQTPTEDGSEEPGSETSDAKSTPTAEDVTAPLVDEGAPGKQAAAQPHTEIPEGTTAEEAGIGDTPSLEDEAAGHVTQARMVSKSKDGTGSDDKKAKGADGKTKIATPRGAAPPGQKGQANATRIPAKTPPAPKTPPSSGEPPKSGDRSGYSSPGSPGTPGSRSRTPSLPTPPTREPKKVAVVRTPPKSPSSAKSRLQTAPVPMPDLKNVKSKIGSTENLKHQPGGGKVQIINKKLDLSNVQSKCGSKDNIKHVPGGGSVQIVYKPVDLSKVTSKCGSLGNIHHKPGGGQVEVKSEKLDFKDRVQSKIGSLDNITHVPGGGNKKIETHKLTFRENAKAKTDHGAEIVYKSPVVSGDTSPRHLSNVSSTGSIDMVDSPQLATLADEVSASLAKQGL

B1: 125B11-H3 (antibody, mouse IgG2a, V domains shown)
VH: EVKLEESGGGLVQPGGSMKLSCVASRFIFSNYWMNWVRQSPEKGLEWVAQIRLKSDNYATHYAESVKGRFTISRDDSKSSVYLQMNNLRAEDTGIYYCTGGTTYWGQGTTLTVSS
VL: DIVMTQSQKFLSTSVGDRVNITCKASQNVGTAVAWYQQKPGQSPGLLIYSASIRYTGVPDRFTGNGSGTDFTLTISDMQSEDLADYFCQQFRTYPYTFGGGTKLEIK
notes: also called 125B1-H3
On to B1, for which, in assay [1], the Kd is 5 nM, the koff is 0.0003 s⁻¹ and the kon was found to be 50000 M⁻¹ s⁻¹. In assay [2], this molecule gave a Kd of 6 nM.

B2: 113F5-F7 (antibody, V domains shown)
VH: EVKLEESGGGLVQPGGSMRLSCVASEFTFSNYWMNWIRQSPEKGLEWVAQIRLKSDNYATHYAESVKGRFTISRDASNFSVYLQMNNLRAEDTGIYYCTGGTSYWGQGTTLTVSS
VL: DIVMTQSQKIMSTSVGDRVSITCKASQNVGTAVAWYQQRPGHSPKLLIYSASRRFSGVPDRFTGSGSGTDFTLTIINVQSEDLADYFCQQFSTYPYTFGVGTKLEIK
notes: hybridoma supernatant
Consider B2, for which the Kd in assay [2] was found to be 2.4 nM.

B3: 52F6-F11 (antibody, V domains shown)
VH: QVQLQQSGTELAKPGASVKLSCKASGYTFTHYWMHWIKQRPGQGLEWIGYIYPTNDYTKYNQNFRDKATLTADESSNSAYMQLNSLTYEDSAVYYCARAGNRVFDFWGQGTTLTVSS
VL: QAVVTQESALTTSPGETVTLTCRSSTGAVTTSNFANWVQEKPDHLFTGLIGGTNNRAPGVPARFSGSLIGDKAALTITGAQTEDEAIYFCALWYSNLWVFGGGTKLTVL
notes: hybridoma supernatant
With B3, the affinity in assay [2], expressed as Kd, was 8.4 nM.

B4: 64B9-F12 (antibody, V domains shown)
VH: QIQLVQSGPELRKPGETVKISCKASGYTFTTYGMSWVKQAPGEGLKWMGWINTYSGMPTYADDFKGRFAFSLETSARTAYLQINNLKNEDTATYFCARSELSWFAYWGQGTLVTVSA
VL: DIVMTQSPATLSVTPGDRVSLSCRASQSISDYLHWYQQKSHESPRLLIKYASQSISGIPSRFSGSGSGSDFTLSINSVEPEDVGVYYCQNGHNFPYTFGGGTKLEIK
notes: hybridoma supernatant
As for B4, in assay [2], the affinity, expressed as Kd, was 2 nM.

B5: 7A11-C12 (antibody, V domains shown)
VH: QIQLVQSGPDLKKPGETVKISCKASGYTFTNYGMNWVKQAPGKGLKWMGWINTNTGEPTYAEEFKGRFAFSLETSASTAYLQIDNLKNEDTATYFCARGTVSFPYWGQGTLVTVSA
VL: DVVMSQTPLSLPVSLGDHASISCRSSQNLVHSDGNTYLHWYLQKPGQSPKLLIYKVSNRFSGVPDRFSGSGSGTDFTLKISRVEAEDLGVYFCSQSTHVIFTFGSGTKLEIK
notes: hybridoma supernatant
As for B5, in assay [2], the Kd came to 0.5 nM.

B6: 126F11-G11 (antibody, mouse IgG2a, V domains shown)
VH: EVQLQQSGAELVRPGASVKLSCTASGFNIKDDYMHWVKQRPEQGLEWIGWIDPENGDTEYASKFQGKATITTDTSSNTAYLQLSSLTSEDTAVYYCLDFAYGYWGQGTTLTVSS
VL: DVLMTQTPLSLPVSLGDQASISCRSSQSIVHSNGNTYLEWYLQKPGQSPKLLIYKVSNRFSGVPDRFSGSGSGTDFTLKISRVEAEDLGVYYCFQGSHVPPAFGGGTKLEIK
As for B6, in assay [1], the Kd was found to be 3 nM, the koff came to 0.004 s⁻¹ and the kon came out at 2e+06 M⁻¹ s⁻¹. The Kd in assay [2] was determined as 4.2 nM.

B7: 30A1-C9 (antibody, V domains shown)
VH: GVQLQQSGPELVKPGASVKISCKTSGYTFTEYTMHWMKQSHGKSLEWIGGIDPNTGNTNYNQKFKGKATLTVDKSSSTAYMDLRSLTSEDSAVYYFYGSGYWGQGTILTVSS
VL: DVLMTQSPLSLPVSLGDQASISCRSSQSIVHSNGNTYLEWFLQKPGQSPKLLIYKVSNRFSGVPDRFSGSGSGTDFTLKISRVEAEDLGVYYCFQASHVPRTFGGGTKLEIK
notes: hybridoma supernatant
Molecule B7 displayed a dissociation constant (Kd) in assay [2] of 0.6 nM.

B8: 307H3E8 (antibody, V domains shown)
VH: EVKFEESGGGLVQPGGSMKLSCVASGFTFSNYWMNWVRQSPEKGLEWVAQIRLKSDNHATHYAESVKGRFTISRDDSKSTVYLQMNNLGAEDTGIYFCTEGGAYFDYWGQGTTLTVSS
VL: DVVMTQTPLSLPVSLGDQASISCRSSQNLVHSNGNTYFHWYLQKPGQSPKLLIYKVSNRFSGVPDRFSGSGSGTDFTLKISRVEAEDLGVYVCSQSTHVPPTFGGGTKLEIK
With B8, in assay [2], the affinity, expressed as Kd, was 1 nM.

B9: 49G10-F4 (antibody, V domains shown)
VH: QVQLQQPGAELVQPGASVKLSCKASGYTFTNYWMQWIKQRPGQGLEWIGEIDPSDSYTNYNQNFKDKATLTVDTSSRTAYMQLSSLTSEDSAVYYCTRRWYINSVRYFDVWGTGTTVTVSA
VL: DVLMTQTPLSLSASLGDQASISCRSSQSIVHSNGNIYLEWYLQKPGQSPKLLIYKVSNRFSGVSDRFSGSGSGTDFTLKISRVEAEDLGVYYCFQGAHVPFTFGAGTKLEIK
notes: hybridoma supernatant
In assay [2], B9 displayed a Kd of 1 nM.

B10: 65B1-A2 (antibody, V domains shown)
VH: QVQLKESGPGLVAPSQSLSITCTISGFSLTTYGVHWVRQPPGKGLEWLVVIWSDGSTTYNSALKSRLSISKDNSKSQVFLKMNSLQTDDTAMYYCARQGGFITTAYYAMDYWGQGTSVTVSS
VL: DIVMSQSPSSLAVSAGEKVTMSCKSSQSLLNSRTRKNYLAWYQQKPGQSPKLLIYWASTRESGVPDRFTGSGSGTDFTLTISSVQAEDLAVYYCKQSYNLYTFGGGTKLEIK
notes: hybridoma supernatant
B10 yielded a Kd in assay [2] of 0.8 nM.

B11: 231G3F10 (antibody, V domains shown)
VH: EVRLVESGGGLVQPKGSLKLSCAASGFSFNTYAMNWVRQAPGKGLEWVARIRSKRNNFATYYADSVKDRFTISRDDSKSMLYLQMNNLKTEDTAMYYCVRWGYDDPYAMDYWGQGTSVTVSS
VL: NIMMTQSPSSLAVSAGEKVTMSCKSSQSVLYSSNQKNYLAWYQQKPGQSPKLLIYWASARESGVPDRFTGSGSGTDFTLTISSVQAEDLAVYYCHQYFSSFTFGSGTKLEIK
On to B11, for which, in assay [2], the affinity, expressed as Kd, was 0.2 nM.

B12: 83E10-D6 (antibody, V domains shown)
VH: EVQLQQSGAELVRSGASVKLSCTASGFNIKDYYIQWVKQRPEQGLEWIGWIDPENGDTDYAPKFQGKATMTADTSSNTAYLQFSSLTSEDTAVYYCNRGWGYWGQGTTLTVSS
VL: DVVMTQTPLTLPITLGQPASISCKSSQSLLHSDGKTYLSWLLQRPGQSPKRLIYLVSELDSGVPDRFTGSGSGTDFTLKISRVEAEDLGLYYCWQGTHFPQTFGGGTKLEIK
notes: hybridoma supernatant
As for B12, the Kd in assay [2] was found to be 0.4 nM.

B13: 71H8-D6 (antibody, V domains shown)
VH: EVQLQQSGAELVRSGASVKLSCTASGFNIKDYYIQWVKQRPEQGLEWIGWIDPENGDTDYAPKFQGKATMTADTSSNTAYLQFSSLTSEDTAVYYCNRGWGYWGQGTTLTVSS
VL: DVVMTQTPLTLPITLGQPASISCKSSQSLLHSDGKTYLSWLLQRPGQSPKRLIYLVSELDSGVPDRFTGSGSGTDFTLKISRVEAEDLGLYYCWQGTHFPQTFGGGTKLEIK
notes: hybridoma supernatant
As to B13, in assay [2], the Kd was found to be 0.8 nM.

B14: 93A8-D2 (antibody, mouse IgG2a, V domains shown)
VH: EVQLQQSGPVLVKPGASVKMSCKASGYTFTDYYVNWVKQSHGKGLEWIGLINPNNGRTSYNQNFNDKATLTVDKSSSTAFMDLNSLTSEDSAVYYCTREGGTGYWGQGTTLSVSS
VL: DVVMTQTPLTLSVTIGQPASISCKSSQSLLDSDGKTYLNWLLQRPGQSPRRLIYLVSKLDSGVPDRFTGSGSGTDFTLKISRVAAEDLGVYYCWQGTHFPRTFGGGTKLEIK
As for B14, in assay [1], the Kd was found to be 6 nM, the koff was found to be 0.002 s⁻¹ and the kon was determined as 300000 M⁻¹ s⁻¹. This molecule also came in with a Kd in assay [2] of 4.3 nM.

B15: hu94B2 HC3 + LC11 (antibody, V domains shown)
VH: EVQLVQSGAEVKKPGASVKVSCKASGYSLTGYTMNWVRQAPGQGLEWIGLISPYNGVTSYNQKFKGRATITVDKSTSTAYLELSSLRSEDTAVYYCARQGAYWGQGTLVTVSS
VL: DVVMTQTPLSLPVTPGQPASISCKSSQSLLDSDGKTYLNWYLQKPGQSPQRLIYLVSKLDSGVPDRFSGSGSGTDFTLKISRVEAEDVGVYYCWQGTHFPWTFGQGTKVEIK
Consider B15, for which, in assay [3], the Kd is 69.3 nM.

B16: 22G7-C9 (antibody, V domains shown)
VH: QIQLVQSGPELKKPGETVKISCKASGYTFTDCSIHWVKQAPGEGLKWMGWINTETGEPSYADDFKGRFAFSLETSASTAFLQINNLKSEDTASYFCGTAYYRYDGALDYWGQGTSVTVSS
VL: DIVLTQSPASLAVSLGQRATISCRASQSVSTSSYSYMHWFQQKPGQPPKLLIKYASNLESGVPARFSGSGSGTDFTLNIHPVEEEDTATYYCQHSWELPWTFGGGTKLEIK
notes: hybridoma supernatant
With B16, the Kd in assay [2] was 36 nM.
